Test results: US9187525B2, “Methods of treating ophthalmic diseases using NPR-B agonists” (Shire Orphan Therapies GmbH, dated 2015)
Numbered stars: 1 amine (or outer) side, 2 acyl side, 3 side chain; on linkers, the order of the positions; unused ones are H or OH. Square brackets hold non-standard residues; d marks the D form. Ends that are not written are not given here. * marks the point of attachment. AFL = (S)-2-((S)-3-amino-2-oxopyrrolidin-1-yl)-3-phenylpropanoic acid, O=C1[C@@H](N[*:1])CCN1[C@@H](Cc1ccccc1)C(=O)[*:2]; aFL = (S)-2-((R)-3-amino-2-oxopyrrolidin-1-yl)-3-phenylpropanoic acid, O=C1[C@H](N[*:1])CCN1[C@@H](Cc1ccccc1)C(=O)[*:2]; afL = (R)-2-((R)-3-amino-2-oxopyrrolidin-1-yl)-3-phenylpropanoic acid, O=C1[C@H](N[*:1])CCN1[C@H](Cc1ccccc1)C(=O)[*:2]; Pca = (2S,3R)-3-aminopyrrolidine-2-carboxylic acid, O=C([C@@H]1[C@H](N[*:3])CCN1[*:1])[*:2]; 779 = 2-((1S,2R,4R)-bicyclo[2.2.1]heptan-2-yl)acetic acid, O=C(C[C@H]1C[C@@H]2CC[C@H]1C2)*; Eal = rac-imidazolidine-2-carboxylic acid, O=C(C1N([*:1])CCN1[*:3])[*:2]; 3218 = (S)-2-cyclopentylhexanoic acid, CCCC[C@H](C(=O)*)C1CCCC1; Pro(trans-4-NH2) = O=C([C@@H]1C[C@@H](N[*:3])CN1[*:1])[*:2]; 785 = 2-phenethyl-benzoic acid, O=C(c1ccccc1CCc1ccccc1)*; Sni = (S)-nipecotic acid, O=C([C@H]1CCCN([*:1])C1)[*:2]; 6013 = (2-butoxy-ethoxy)-acetic acid, CCCCOCCOCC(=O)*; Gly(2-thienyl) = N[C@H](C(=O)O)c1cccs1; Propanoyl(3-cHex) = O=C(CCC1CCCCC1)*; Gly(NCH2CH2Ph) = O=C(O)CNCCc1ccccc1; Gly(cPent) = N[C@H](C(=O)O)C1CCCC1; Hydrocinnamoyl = O=C(CCc1ccccc1)*; Hyp = O=C(O)[C@@H]1C[C@@H](O)CN1; ES‑283‑049 = not defined here; NMeL = CN[C@@H](CC(C)C)C(=O)O; Chg = N[C@H](C(=O)O)C1CCCCC1; Decanoyl = CCCCCCCCCC(=O)*; Nle = CCCC[C@H](N)C(=O)O; Nphe = O=C(O)CNCc1ccccc1; Octanoyl = CCCCCCCC(=O)*; Thz = O=C(O)[C@@H]1CSCN1; Api = NC1(C(=O)O)CCNCC1; Che = not defined here; leu = not defined here; NP = not defined here; Occ = octanoic acid

T1: natriuretic peptide receptor-B (human)
T1 chain: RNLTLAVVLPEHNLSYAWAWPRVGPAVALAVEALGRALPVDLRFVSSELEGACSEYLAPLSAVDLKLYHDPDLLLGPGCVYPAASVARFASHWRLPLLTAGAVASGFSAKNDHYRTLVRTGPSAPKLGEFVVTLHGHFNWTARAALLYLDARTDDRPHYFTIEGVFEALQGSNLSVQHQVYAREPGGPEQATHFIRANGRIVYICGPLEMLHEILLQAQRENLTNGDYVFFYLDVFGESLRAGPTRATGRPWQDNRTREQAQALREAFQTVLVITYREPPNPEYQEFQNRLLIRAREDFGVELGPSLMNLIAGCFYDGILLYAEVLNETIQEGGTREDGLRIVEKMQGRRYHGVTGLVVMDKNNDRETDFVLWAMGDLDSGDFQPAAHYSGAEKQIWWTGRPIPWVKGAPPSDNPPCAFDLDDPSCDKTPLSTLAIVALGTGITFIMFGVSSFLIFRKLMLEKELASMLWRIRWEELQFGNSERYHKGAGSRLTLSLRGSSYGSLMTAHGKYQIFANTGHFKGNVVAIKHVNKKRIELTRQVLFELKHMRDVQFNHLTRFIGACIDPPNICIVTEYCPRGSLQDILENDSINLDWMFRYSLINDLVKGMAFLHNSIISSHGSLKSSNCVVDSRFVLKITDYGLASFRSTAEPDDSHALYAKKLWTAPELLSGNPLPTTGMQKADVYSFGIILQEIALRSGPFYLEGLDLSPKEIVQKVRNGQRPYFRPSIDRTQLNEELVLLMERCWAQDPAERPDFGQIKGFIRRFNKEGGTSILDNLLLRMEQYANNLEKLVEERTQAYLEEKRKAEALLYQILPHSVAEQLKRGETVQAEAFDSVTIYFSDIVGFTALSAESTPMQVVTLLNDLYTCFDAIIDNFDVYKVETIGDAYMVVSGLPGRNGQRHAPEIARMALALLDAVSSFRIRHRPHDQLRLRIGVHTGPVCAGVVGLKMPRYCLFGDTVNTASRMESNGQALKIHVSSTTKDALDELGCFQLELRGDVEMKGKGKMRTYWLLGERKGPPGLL

B1: JAL-1635 (peptide)
peptide: [Occ][Sni][Gly(NCH2CH2Ph)][leu]L[Hyp][NMeL]DRI-NH2
modifications: reading uncertain; also: printed as Occ-Sni-NHfe-leu-Leu-Hyp-Nml-Asp-Arg-Ile-NH2
B2: JAL-1664 (peptide)
peptide: [3218][Sni]F[leu]L[Hyp][NMeL]DRI-NH2
modifications: reading uncertain; also: printed as 3218-Sni-Phe-leu-Leu-Hyp-Nml-Asp-Arg-Ile-NH2
B3: JAL-1666 (peptide)
peptide: [Decanoyl][Sni]F[leu]L[Hyp][NMeL]DRI-NH2
modifications: reading uncertain; also: printed as 5587-Sni-Phe-leu-Leu-Hyp-Nml-Asp-Arg-Ile-NH2
B4: JAL-1634 (peptide)
peptide: [Occ][Sni][Nphe][leu]L[Hyp][NMeL]DRI-NH2
modifications: reading uncertain; also: printed as Occ-Sni-NPhe-leu-Leu-Hyp-Nml-Asp-Arg-Ile-NH2
B5: JAL-1646 (peptide)
peptide: [Occ][Sni]F[leu]L[Hyp][NMeL]D[ES‑283‑049]
modifications: reading uncertain; also: printed as Occ-Sni-Phe-leu-Leu-Hyp-Nml-Asp-(ES-283-049)
B6: JAL-1669 (peptide)
peptide: XXXFLLXXDRI
HELM: PEPTIDE1{[O=C(CCc1ccccc1)[*:2]].[bAla].[O=C([C@H]1CCCN([*:1])C1)[*:2]].F.[dL].L.[Hyp].[meL].D.R.I.[am]}$$$$V2.0
SMILES: CC[C@H](C)[C@H](NC(=O)[C@H](CCCNC(=N)N)NC(=O)[C@H](CC(=O)O)NC(=O)[C@H](CC(C)C)N(C)C(=O)[C@@H]1C[C@@H](O)CN1C(=O)[C@H](CC(C)C)NC(=O)[C@@H](CC(C)C)NC(=O)[C@H](Cc1ccccc1)NC(=O)[C@H]1CCCN(C(=O)CCNC(=O)CCc2ccccc2)C1)C(N)=O
B7: JAL-1661 (peptide)
peptide: [Hydrocinnamoyl][Sni]F[leu]L[Hyp][NMeL]DRI-NH2
modifications: reading uncertain; also: printed as 1281-Sni-Phe-leu-Leu-Hyp-Nml-Asp-Arg-Ile-NH2
B8: JAL-1668 (peptide)
peptide: XGXFLLXXDRI
HELM: PEPTIDE1{[O=C(CCc1ccccc1)[*:2]].G.[O=C([C@H]1CCCN([*:1])C1)[*:2]].F.[dL].L.[Hyp].[meL].D.R.I.[am]}$$$$V2.0
SMILES: CC[C@H](C)[C@H](NC(=O)[C@H](CCCNC(=N)N)NC(=O)[C@H](CC(=O)O)NC(=O)[C@H](CC(C)C)N(C)C(=O)[C@@H]1C[C@@H](O)CN1C(=O)[C@H](CC(C)C)NC(=O)[C@@H](CC(C)C)NC(=O)[C@H](Cc1ccccc1)NC(=O)[C@H]1CCCN(C(=O)CNC(=O)CCc2ccccc2)C1)C(N)=O
B9: JAL-1665 (peptide)
peptide: [6013][Sni]F[leu]L[Hyp][NMeL]DRI-NH2
modifications: reading uncertain; also: printed as 6013-Sni-Phe-leu-Leu-Hyp-Nml-Asp-Arg-Ile-NH2

Target: T1, natriuretic peptide receptor-B
Test: cell-based or functional assay

| Binder | EC50 group, cGMP in GTM-3 cells |
| --- | --- |
| [785][Sni]F[leu]L[Hyp][NMeL]DRI-NH2 (reading uncertain; also: printed as 785-Sni-Phe-leu-Leu-Hyp-Nml-Asp-Arg-Ile-NH2) [JAL-1660] | ≤ 15 µM |
| [Occ][AFL][dL]L[Hyp][NMeL]DRI-NH2 [JAL-1671] | ≤ 1 µM |
| [Occ][aFL][leu]L[Hyp][NMeL]DRI-NH2 (reading uncertain; also: printed as Occ-(aFL)-leu-Leu-Hyp-Nml-Asp-Arg-Ile-NH2) [JAL-1636] | ≤ 5 µM |
| {Propanoyl(3-cHex)}-[dA][dA]FGLKLDRI-NH2 [JAL-0703] | ≤ 15 µM |
| [Occ][Sni]F[leu]L[Pro(trans-4-NH2)][NMeL]VP[Che] (reading uncertain; also: printed as Occ-Sni-Phe-leu-Leu-Tap-Nml-Val-Pro-Che) [JAL-1654] | ≤ 1 µM |
| [Occ][Sni]F[leu]L[Hyp][NMeL]D[Thz][Che] (reading uncertain; also: printed as Occ-Sni-Phe-leu-Leu-Hyp-Nml-Asp-Eaz-Che) [JAL-1638] | ≤ 1 µM |
| B1 | ≤ 15 µM |
| B2 | ≤ 15 µM |
| Octanoyl-[dA][dA]FGLKLDRI-NH2 [JAL-0701] | ≤ 5 µM |
| B3 | ≤ 1 µM |
| B4 | ≤ 15 µM |
| [Occ][Sni]F[dL]L[Hyp][NMeL]D[Pca][Che] (reading uncertain; also: printed as Occ-Sni-Phe-leu-Leu-Hyp-Nml-Asp-Pca-Che) [JAL-1679] | ≤ 1 µM |
| B5 | ≤ 5 µM |
| [Occ][Sni]F[leu]L[Hyp][Chg]DRI-NH2 (reading uncertain; also: printed as Occ-Sni-Phe-leu-Leu-Hyp-Chg-Asp-Arg-Ile-NH2) [JAL-1627] | ≤ 5 µM |
| [Occ][Sni]F[dL]L[Hyp][NMeL]D[Api][Che] (reading uncertain; also: printed as Occ-Sni-Phe-leu-Leu-Hyp-Nml-Asp-Apc-Che) [JAL-1672] | ≤ 15 µM |
| [Occ][Sni]F[leu]L[Hyp][Gly(cPent)]DRI-NH2 (reading uncertain; also: printed as Occ-Sni-Phe-leu-Leu-Hyp-Cpg-Asp-Arg-Ile-NH2) [JAL-1626] | ≤ 1 µM |
| [Occ][Sni]F[leu]L[Hyp][NMeL]D[Eal][Che] (reading uncertain; also: printed as Occ-Sni-Phe-leu-Leu-Hyp-Nml-Asp-Eal-Che) [JAL-1639] | ≤ 5 µM |
| B6 | ≤ 15 µM |
| [Occ][Sni]F[dL]L[Hyp][NMeL][NP][Che] (reading uncertain; also: printed as Occ-Sni-Phe-leu-Leu-Hyp-Nml-NP-Che) [JAL-1673] | ≤ 15 µM |
| B7 | ≤ 5 µM |
| [Occ][afL][leu]L[Hyp][NMeL]DRI-NH2 (reading uncertain; also: printed as Occ-(afL)-leu-Leu-Hyp-Nml-Asp-Arg-Ile-NH2) [JAL-1637] | ≤ 5 µM |
| B8 | ≤ 15 µM |
| [Occ][Sni]F[dL]L[Pro(trans-4-NH2)][NMeL][Gly(2-thienyl)]P[Che] (reading uncertain; also: printed as Occ-Sni-Phe-leu-Leu-Tap-Nml-(BB726)-Pro-Che) [JAL-1676] | ≤ 5 µM |
| B9 | ≤ 5 µM |
| [Occ][Sni]F[leu]L[Hyp][NMeL]EP[Che] (reading uncertain; also: printed as Occ-Sni-Phe-leu-Leu-Hyp-Nml-Glu-Pro-Che) [JAL-1652] | ≤ 5 µM |
| [Occ][Sni]F[leu][Nle][Hyp][NMeL]DP[Che] (reading uncertain; also: printed as Occ-Sni-Phe-leu-Nle-Hyp-Nml-Asp-Pro-Che) [JAL-1657] | ≤ 1 µM |
| [779][Sni]F[leu]L[Hyp][NMeL]DRI-NH2 (reading uncertain; also: printed as 779-Sni-Phe-leu-Leu-Hyp-Nml-Asp-Arg-Ile-NH2) [JAL-1659] | ≤ 5 µM |
| [Occ][Sni]F[leu]L[Hyp]IDRI-NH2 (reading uncertain; also: printed as Occ-Sni-Phe-leu-Leu-Hyp-Ile-Asp-Arg-Ile-NH2) [JAL-1625] | ≤ 1 µM |
